Here are results for four molecules from publication PMC8855783.

One experiment addresses NBD P9 PAI-1 (UniProt P05121).
The target in experiment [1] is wild-type PAI-1 (human) (UniProt P05121).
Experiment [2] shares this target. The source holds these as a separate data set.
Experiment [3] has the same target. This is another data set of the same source.

For the molecule “two-chain tissue-type plasminogen activator (enzyme)”, in the experiment with NBD P9 PAI-1, the Km ([PA] at half-saturation) of RCL insertion, no Nb, −Vn amounted to 0.22 µM; the Km of RCL insertion, with Nb42, −Vn came to 1.2 µM; the Km of RCL insertion, with Nb42 and Nb64, −Vn is 1.4 µM; the Km of RCL insertion, with Nb64, −Vn was 0.17 µM. In the experiment with NBD P9 PAI-1, this molecule displayed a klim of RCL insertion (stopped-flow NBD fluorescence), no Nb, −Vn of 1.5 s⁻¹; a klim of RCL insertion, with Nb42 and Nb64, −Vn of 5.2 s⁻¹; a klim of RCL insertion, with Nb64, −Vn of 1.4 s⁻¹; a klim/Km of RCL insertion, with Nb42 and Nb64, +Vn ((μmol/ L)^−1 s^−1) of 1.1. Further, in the experiment with wild-type PAI-1 (human) [1], the SI by SDS-PAGE, with Nb42, +Vn was 1; the SI by SDS-PAGE, with Nb42, −Vn came to 1.1; the SI by SDS-PAGE, with Nb42 and Nb64, +Vn was above 30; the SI by SDS-PAGE, with Nb42 and Nb64, −Vn amounted to 16.9. In the experiment with wild-type PAI-1 (human) [1], this molecule had an SI by SDS-PAGE, with Nb64, +Vn above 30; an SI by SDS-PAGE, with Nb64, −Vn of 15.6; a stoichiometry of inhibition (SI) by SDS-PAGE, no Nb, −Vn of 1.1.

As to “two-chain urokinase-type plasminogen activator (enzyme)”, in the experiment with NBD P9 PAI-1, the klim/Km of RCL insertion, no Nb, −Vn ((μmol/ L)^−1 s^−1) was determined as 11.3 and the klim/Km of RCL insertion, with Nb64, −Vn ((μmol/ L)^−1 s^−1) was found to be 14.7. Besides, in the experiment with wild-type PAI-1 (human) [1], the SI by SDS-PAGE, no Nb, −Vn was found to be 1.1; the SI by SDS-PAGE, with Nb42, +Vn was found to be 1.1; the SI by SDS-PAGE, with Nb42, −Vn was 1.2; the SI by SDS-PAGE, with Nb42 and Nb64, −Vn was determined as 12.4. Also, in the experiment with wild-type PAI-1 (human) [1], the SI by SDS-PAGE, with Nb64, +Vn came out at 10 and the SI by SDS-PAGE, with Nb64, −Vn was 27. In the experiment with wild-type PAI-1 (human) [2], the percent substrate reaction by SDS-PAGE, with Nb64, +Vn was determined as 90% and the percent substrate reaction by SDS-PAGE, with Nb64, −Vn was 96%.

B1: VHH-2g-42 (VHH)
VHH: QVQLVESGGGLVQPGGRLRLSCAASGFTFRTYAMQWYRQSPGTERELVAAISNIGGVTDYGDSVKGRFTISRDNAKTTVYLEMNSLKPEDTATYYCSAVRLPQRYWGRGTQVTVSS
Turning to B1, in the experiment with wild-type PAI-1 (human) [3], the IC50 of inhibition of PAI-1-wt activity, PAI-1/tPA, −Vn turned out to be 87 nM.

B2: VHH-2w-64 (VHH)
VHH: QVQLVESGGGLVQAGGSLRLSCAASGFTFDDYSIAWFRQAPGKEREGVSCISSSDGSAYYADSVKGRFTISSDNAKNTVYLQMNSLKPEDTAVYYCAAVWARVCRNPYDYWGQGTQVTVSS
As for B2, in the experiment with wild-type PAI-1 (human) [3], the IC50 of inhibition of PAI-1-wt activity, PAI-1/tPA, −Vn worked out at 16 nM; the IC50 of inhibition of PAI-1-wt activity, PAI-1/uPA, −Vn was 4.6 nM; the IC50 of inhibition of the activity of Vn-bound PAI-1-wt, PAI-1/tPA is 2.8 nM; the IC50 of inhibition of the activity of Vn-bound PAI-1-wt, PAI-1/uPA worked out at 2 nM. For the same molecule, in the experiment with wild-type PAI-1 (human) [3], the maximum inhibition of PAI-1-wt activity, PAI-1/uPA, −Vn amounted to 88% and the maximum inhibition of the activity of Vn-bound PAI-1-wt, PAI-1/tPA came out at 93%.
